According to patent US20160280744A1:

How the values were obtained:
[1] = target: human IgG (Oriental Yeast Co., ltd) (human); test: pH gradient affinity chromatography, bound at pH 7.2, gradient 20 mM citric acid pH 6.0 to pH 2.4 over 80 min
[2] = target: human IgG (Oriental Yeast Co., ltd) (human); test: affinity column (1 ml carrier with immobilised protein), human IgG 1 mg/ml at pH 7.2, 10% breakthrough, flow rate 0.4 mL/min
[3] = target: human IgG (Oriental Yeast Co., ltd) (human); test: affinity column (1 ml carrier with immobilised protein), human IgG 1 mg/ml at pH 7.2, 10% breakthrough, flow rate 1.0 mL/min

pH at the peak of the elution of human IgG [1]: 4.4 pH | dynamic binding capacity (DBC) [2]: 12.3 mg | dynamic binding capacity (DBC) [3]: 5.3 mg
B1: tandem-type tetramer PG, rPG-A4 (CGB19H-4D) (designed binder)
chain: MAYYDPETGTWYSGGRDTYKLILNGKTLKGETTTEAVDAATAEKVFKHYANEHGVHGHWTYDPETKTFTVTERPEVIDASELTPAVDTYKLILNGKTLKGETTTEAVDAATAEKVFKHYANEHGVHGHWTYDPETKTFTVTERPEVIDASELTPAVDTYKLILNGKTLKGETTTEAVDAATAEKVFKHYANEHGVHGHWTYDPETKTFTVTERPEVIDASELTPAVDTYKLILNGKTLKGETTTEAVDAATAEKVFKHYANEHGVHGHWTYDPETKTFTVTERPEVIDASELTPAVGGGGSGGGGSGGGGSGGGGCHHHHHH
